Assay results as given in IntAct's records for PubMed 18034774.

B1: Ras-related protein Rab-5A (Homo sapiens), P20339 (parent)
chain: MASRGATRPNGPNTGNKICQFKLVLLGESAVGKSSLVLRFVKGQFHEFQESTIGAAFLTQTVCLDDTTVKFEIWDTAGQERYHSLAPMYYRGAQAAIVVYDITNEESFARAKNWVKELQRQASPNIVIALSGNKADLANKRAVDFQEAQSYADDNSLLFMETSAKTSMNVNEIFMAIAKKLPKNEPQNPGANSARGRGVDLTEPTQPTRNQCCSN
partner: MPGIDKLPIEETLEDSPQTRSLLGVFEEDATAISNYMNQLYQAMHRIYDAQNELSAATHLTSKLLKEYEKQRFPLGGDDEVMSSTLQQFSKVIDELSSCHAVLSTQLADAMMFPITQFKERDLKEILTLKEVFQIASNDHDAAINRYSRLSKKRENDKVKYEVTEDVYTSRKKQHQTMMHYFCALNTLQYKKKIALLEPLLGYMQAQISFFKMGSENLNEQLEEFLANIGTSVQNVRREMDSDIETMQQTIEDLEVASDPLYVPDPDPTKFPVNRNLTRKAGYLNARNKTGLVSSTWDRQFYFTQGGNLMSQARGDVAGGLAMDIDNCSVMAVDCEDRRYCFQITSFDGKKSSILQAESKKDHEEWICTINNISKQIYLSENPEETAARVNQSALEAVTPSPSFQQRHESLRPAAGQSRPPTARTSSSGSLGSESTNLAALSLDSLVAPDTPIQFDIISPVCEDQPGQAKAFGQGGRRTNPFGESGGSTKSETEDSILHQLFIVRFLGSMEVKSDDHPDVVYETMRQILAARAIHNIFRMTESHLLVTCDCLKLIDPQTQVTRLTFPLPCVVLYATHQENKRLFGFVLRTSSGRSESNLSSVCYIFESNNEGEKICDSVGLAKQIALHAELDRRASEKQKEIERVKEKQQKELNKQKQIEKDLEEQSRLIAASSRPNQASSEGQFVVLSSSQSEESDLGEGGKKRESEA

Variants of: B1
Conditions: with dp13a_human APPL1, Q9UKG1

effect of a mutation on the interaction | Variant
disrupting interaction strength | MASRGATRPNGPNTGNKICQFKLVLLGESAVGKNSLVLRFVKGQFHEFQESTIGAAFLTQTVCLDDTTVKFEIWDTAGQERYHSLAPMYYRGAQAAIVVYDITNEESFARAKNWVKELQRQASPNIVIALSGNKADLANKRAVDFQEAQSYADDNSLLFMETSAKTSMNVNEIFMAIAKKLPKNEPQNPGANSARGRGVDLTEPTQPTRNQCCSN [S34N]
